Measurements reported in article PMC5785985, “Molecular snapshots of APE1 proofreading mismatches and removing DNA damage”.

How the values were obtained:
APE1 (ΔAPE1 C138A) [1] = target: T1, APE1 (ΔAPE1 C138A) (Homo sapiens, UniProt P27695 44-318, C138A); test: X-ray crystallography (2.3 Å); MgCl2 soak 2.5 h, no metal resolved; Crystallization: 7-14% PEG 20K, 100 mM sodium citrate pH 5.0, 15% glycerol, 5 mM CaCl2, 20 °C; 0.56 mM DNA, 10-12 mg/ml APE1; data at 100 K; conditions: protein: recombinant; 1-nt gapped duplex, three strands, blunt ends
[2] = target: APE1 F266A (ΔAPE1 C138A F266A) (Homo sapiens, UniProt P27695 44-318, C138A;F266A); test: X-ray crystallography; Crystallization: 7-14% PEG 20K, 100 mM sodium citrate pH 5.0, 15% glycerol, 5 mM CaCl2, 20 °C; 0.56 mM DNA, 10-12 mg/ml APE1; data at 100 K; conditions: protein: recombinant; nicked duplex, three strands 1:1:1, blunt ends, C/T mismatch at 3' end of nick
APE1 (ΔAPE1 C138A) [3] = target: T1, APE1 (ΔAPE1 C138A); test: X-ray crystallography; 5 mM CaCl2, no metal resolved; Crystallization: 7-14% PEG 20K, 100 mM sodium citrate pH 5.0, 15% glycerol, 5 mM CaCl2, 20 °C; 0.56 mM DNA, 10-12 mg/ml APE1; data at 100 K; conditions: protein: recombinant; nicked duplex, three strands 1:1:1, blunt ends, C/T mismatch at 3' end of nick
APE1 (ΔAPE1 C138A) [4] = target: T1, APE1 (ΔAPE1 C138A); test: X-ray crystallography (2.6 Å); Crystallization: 7-14% PEG 20K, 100 mM sodium citrate pH 5.0, 15% glycerol, 5 mM CaCl2, 20 °C; 0.56 mM DNA, 10-12 mg/ml APE1; data at 100 K; conditions: protein: recombinant; nicked duplex, three strands 1:1:1, blunt ends, fully paired
APE1 (ΔAPE1 C138A) [5] = target: T1, APE1 (ΔAPE1 C138A); test: X-ray crystallography (2.10 Å); no metal resolved; Crystallization: 7-14% PEG 20K, 100 mM sodium citrate pH 5.0, 15% glycerol, 5 mM CaCl2, 20 °C; 0.56 mM DNA, 10-12 mg/ml APE1; data at 100 K; conditions: protein: recombinant; nicked duplex, three strands 1:1:1, blunt ends, C/T mismatch at 3' end of nick

T1 sequence (P27695 44-318 C138A): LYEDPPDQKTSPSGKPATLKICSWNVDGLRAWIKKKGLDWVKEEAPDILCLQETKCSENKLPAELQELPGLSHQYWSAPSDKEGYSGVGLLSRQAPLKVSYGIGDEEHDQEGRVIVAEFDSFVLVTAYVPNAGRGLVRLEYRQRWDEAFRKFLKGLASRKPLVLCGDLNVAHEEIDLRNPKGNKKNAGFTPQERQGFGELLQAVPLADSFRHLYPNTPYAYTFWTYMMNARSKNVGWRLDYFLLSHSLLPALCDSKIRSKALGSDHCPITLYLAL
Sequence of APE1 F266A (ΔAPE1 C138A F266A) (P27695 44-318 C138A/F266A): as the sequence (P27695 44-318 C138A) above, with F223A counted along it

B1: 21-mer duplex with 1-nt gap (exo product) (dsDNA)
DNA 1: GGATCCGTCGATCGCATCAGC
DNA 2: GCTGATGCG
DNA 3: TCGACGGATCC
modifications: 5'-phosphate on strand 3; 3'-OH on strand 2
Does B1 bind (APE1 (ΔAPE1 C138A) [1])?
Result: binds

B2: 21-mer nicked duplex, 3' C/T mismatch (F266A crystal) (dsDNA)
DNA 1: GGATCCGTCGATCGCATCAGC
DNA 2: GCTGATGCGC
DNA 3: TCGACGGATCC
modifications: 5'-phosphate on strand 3; phosphorothioate not stated for this crystal
Does B2 bind [2]?
Result: binds

B3: 21-mer nicked duplex, 3' C/T mismatch (dsDNA)
DNA 1: GGATCCGTCGATCGCATCAGC
DNA 2: GCTGATGCGC
DNA 3: TCGACGGATCC
modifications: 5'-phosphate on strand 3
Does B3 bind (APE1 (ΔAPE1 C138A) [3])?
Result: binds

B4: 21-mer nicked duplex, 3' C/G match (dsDNA)
DNA 1: GGATCCGTCGAGCGCATCAGC
DNA 2: GCTGATGCGC
DNA 3: TCGACGGATCC
modifications: 5'-phosphate on strand 3
Does B4 bind (APE1 (ΔAPE1 C138A) [4])?
Result: binds

B5: 21-mer nicked duplex, 3' C/T mismatch, phosphorothioate (dsDNA)
DNA 1: GGATCCGTCGATCGCATCAGC
DNA 2: GCTGATGCGC
DNA 3: TCGACGGATCC
modifications: phosphorothioate 5' to the 3'-terminal C of strand 2 (Sp and Rp); 5'-phosphate on strand 3
Does B5 bind (APE1 (ΔAPE1 C138A) [5])?
Result: binds
